This note sets out measurements from US20150344570A1 (published 2015).

The target in assay [1] is T1, FcγRIIIa extracellular domain with C-terminal His tag (human, UniProt P08637 17-208).
T1 construct: extracellular domain; also called FcgRIIIa; 3a; not shown: His tag at the C terminus
Kind of assay: SPR (Biacore); He/Con for FcγRIIIa divided by He/Con for FcγRIIb. As for the experimental part:
(§1) The heterodimerized antibodies He Abs in which one of the H chains was introduced with an alteration were assayed for their binding activities to each activating FcγR and inhibitory FcγR according to the method described in Example 4. […] The activating FcγRs in FIGS. 26, 27, 28, and 29 are FcγRIa, FcγRIIa (R), FcγRIIa (H), and FcγRIIIa, respectively.
(§2) Analysis of interaction between objective antibody and the FcγR was carried out using Biacore T100 (GE Healthcare). HBS-EP+ (GE Healthcare) was used as the running buffer, and the measurement temperature was set to 25° C. Chips produced by immobilizing the antigen peptide by the amine coupling method to a Series S Sencor Chip CM5 (GE Healthcare), or alternatively, chips produced by allowing preliminarily biotinylated antigen peptides to interact with and immobilize onto a Series S Sensor Chip SA (certified) (GE Healthcare) were used. Antibodies of interest were captured onto an antigen peptide-immobilized chip, and allowed to interact to each FcγR diluted with running buffer. To regenerate and repeatedly use the chip, the antibodies captured on the chip were washed off by reacting 10 mM glycine-HCl, pH 1.5.

Assay [2] deals with T1, FcγRIIIa extracellular domain with …. Kind of assay: SPR (Biacore), antibody captured on antigen-peptide chip, FcγR as analyte; relative binding amount. The method, then: as §1, §2
A general note: In SPR one partner is held on a chip, and binding of the other changes the refractive index at the surface.

Assay [3] concerns the target T2, FcγRIIb extracellular domain with C-terminal His tag (human, UniProt P31994 43-217).
T2 construct: extracellular domain; Soluble receptor expressed in FreeStyle293 cells and used as analyte in Biacore; also called FcgRIIb; 2b; not shown: His tag at the C terminus
T2 sequence (looked up): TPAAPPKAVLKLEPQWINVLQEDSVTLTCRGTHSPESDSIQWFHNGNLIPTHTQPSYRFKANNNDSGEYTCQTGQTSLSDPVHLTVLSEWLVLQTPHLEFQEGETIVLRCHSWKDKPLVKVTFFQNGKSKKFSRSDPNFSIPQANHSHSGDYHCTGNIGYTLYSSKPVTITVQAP
The assay is described as above. The method, then: as §1, §2

A further assay addresses T3, FcγRIIIa (human, UniProt P08637 17-208).
T3 construct: extracellular domain; also called 3a; FcgRIIIa
Nature of the assay: SPR (Biacore), antibody captured on antigen-peptide chip, FcγR as analyte; binding of He Ab / binding of HeCon Ab GpH7-A5/GpH7-B3/GpL16-k0 x 100.

T3 sequence (P08637 17-208): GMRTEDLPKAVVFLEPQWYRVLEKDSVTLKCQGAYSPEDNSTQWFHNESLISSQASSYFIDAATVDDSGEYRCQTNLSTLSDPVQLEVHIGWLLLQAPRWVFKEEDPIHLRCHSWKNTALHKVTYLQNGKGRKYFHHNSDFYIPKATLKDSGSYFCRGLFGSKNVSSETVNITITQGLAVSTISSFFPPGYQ
T1 sequence (P08637 17-208): as above

B1: GpH7-A5/GpH7-B3 variant I336_02A/GpL16-k0 (antibody, human IgG1, kappa)
heavy 1: not shown
heavy 2: not shown
light: DIVMTQSPLSLPVTPGEPASISCQASESLVHSNRNTYLHWYLQKPGQSPQLLIYKVSNRFSGVPDRFSGSGSGTDFTLKISRVEAEDVGVYYCSQNTHVPPTFGQGTKVEIERTVAAPSVFIFPPSDEQLKSGTASVVCLLNNFYPREAKVQWKVDNALQSGNSQESVTEQDSKDSTYSLSSTLTLSKADYEKHKVYACEVTHQGLSSPVTKSFNRGEC
notes: Heterodimerized anti-glypican-3 IgG1 (He Ab); The mutation is in the GpH7-B3 chain only; also called He Ab with I336A in GpH7-B3
Turning to B1, the “He_3a/2b (IIIa/IIb)” value in assay [1] was 1.31 ratio. The “He/Con_3a (IIIa binding)” value in assay [2] is 111 relative, GpH7-A5/GpH7-B3/GpL16-k0 = 100. Moreover, the “He/Con_2b (IIb binding)” value in assay [3] is 84.9 relative, GpH7-A5/GpH7-B3/GpL16-k0 = 100.

B2: GpH7-A5/GpH7-B3 variant S324_01G/GpL16-k0 (He Ab) (antibody, human IgG1, kappa)
heavy 1: not shown
heavy 2: not shown
light: DIVMTQSPLSLPVTPGEPASISCQASESLVHSNRNTYLHWYLQKPGQSPQLLIYKVSNRFSGVPDRFSGSGSGTDFTLKISRVEAEDVGVYYCSQNTHVPPTFGQGTKVEIERTVAAPSVFIFPPSDEQLKSGTASVVCLLNNFYPREAKVQWKVDNALQSGNSQESVTEQDSKDSTYSLSSTLTLSKADYEKHKVYACEVTHQGLSSPVTKSFNRGEC
notes: Heterodimerized anti-glypican-3 antibody; the alteration stands only in the GpH7-B3 chain
Turning to B2, in the assay with FcγRIIIa, the He/Con_3a is 105 relative to control = 100.

B3: GpH7-A5/GpH7-B3 variant S239_18N/GpL16-k0 (He Ab) (antibody, human IgG1, kappa)
heavy 1: not shown
heavy 2: not shown
light: DIVMTQSPLSLPVTPGEPASISCQASESLVHSNRNTYLHWYLQKPGQSPQLLIYKVSNRFSGVPDRFSGSGSGTDFTLKISRVEAEDVGVYYCSQNTHVPPTFGQGTKVEIERTVAAPSVFIFPPSDEQLKSGTASVVCLLNNFYPREAKVQWKVDNALQSGNSQESVTEQDSKDSTYSLSSTLTLSKADYEKHKVYACEVTHQGLSSPVTKSFNRGEC
notes: as for B2
On to B3, for which the He/Con_3a with FcγRIIIa is 110 relative to control = 100.

B4: GpH7-A5/GpH7-B3 variant Y300_08L/GpL16-k0 (He Ab) (antibody, human IgG1, kappa)
heavy 1: not shown
heavy 2: not shown
light: DIVMTQSPLSLPVTPGEPASISCQASESLVHSNRNTYLHWYLQKPGQSPQLLIYKVSNRFSGVPDRFSGSGSGTDFTLKISRVEAEDVGVYYCSQNTHVPPTFGQGTKVEIERTVAAPSVFIFPPSDEQLKSGTASVVCLLNNFYPREAKVQWKVDNALQSGNSQESVTEQDSKDSTYSLSSTLTLSKADYEKHKVYACEVTHQGLSSPVTKSFNRGEC
notes: as for B2
Regarding B4, in the assay with FcγRIIIa, the He/Con_3a was 105 relative to control = 100.

B5: GpH7-A5/GpH7-B3 variant T335_08L/GpL16-k0 (He Ab) (antibody, human IgG1, kappa)
heavy 1: not shown
heavy 2: not shown
light: DIVMTQSPLSLPVTPGEPASISCQASESLVHSNRNTYLHWYLQKPGQSPQLLIYKVSNRFSGVPDRFSGSGSGTDFTLKISRVEAEDVGVYYCSQNTHVPPTFGQGTKVEIERTVAAPSVFIFPPSDEQLKSGTASVVCLLNNFYPREAKVQWKVDNALQSGNSQESVTEQDSKDSTYSLSSTLTLSKADYEKHKVYACEVTHQGLSSPVTKSFNRGEC
notes: as for B2
For the molecule B5, the He/Con_3a with FcγRIIIa was 102 relative to control = 100.

B6: GpH7-A5/GpH7-B3 variant T335_09D/GpL16-k0 (He Ab) (antibody, human IgG1, kappa)
heavy 1: not shown
heavy 2: not shown
light: DIVMTQSPLSLPVTPGEPASISCQASESLVHSNRNTYLHWYLQKPGQSPQLLIYKVSNRFSGVPDRFSGSGSGTDFTLKISRVEAEDVGVYYCSQNTHVPPTFGQGTKVEIERTVAAPSVFIFPPSDEQLKSGTASVVCLLNNFYPREAKVQWKVDNALQSGNSQESVTEQDSKDSTYSLSSTLTLSKADYEKHKVYACEVTHQGLSSPVTKSFNRGEC
notes: as for B2
Regarding B6, in the assay with FcγRIIIa, the He/Con_3a is 108 relative to control = 100.

B7: GpH7-A5/GpH7-B3 variant T335_06M/GpL16-k0 (He Ab) (antibody, human IgG1, kappa)
heavy 1: not shown
heavy 2: not shown
light: DIVMTQSPLSLPVTPGEPASISCQASESLVHSNRNTYLHWYLQKPGQSPQLLIYKVSNRFSGVPDRFSGSGSGTDFTLKISRVEAEDVGVYYCSQNTHVPPTFGQGTKVEIERTVAAPSVFIFPPSDEQLKSGTASVVCLLNNFYPREAKVQWKVDNALQSGNSQESVTEQDSKDSTYSLSSTLTLSKADYEKHKVYACEVTHQGLSSPVTKSFNRGEC
notes: as for B2
In the case of B7, the He/Con_3a in the assay with FcγRIIIa was 102 relative to control = 100.

B8: GpH7-A5/GpH7-B3 variant S337_16H/GpL16-k0 (He Ab) (antibody, human IgG1, kappa)
heavy 1: not shown
heavy 2: not shown
light: DIVMTQSPLSLPVTPGEPASISCQASESLVHSNRNTYLHWYLQKPGQSPQLLIYKVSNRFSGVPDRFSGSGSGTDFTLKISRVEAEDVGVYYCSQNTHVPPTFGQGTKVEIERTVAAPSVFIFPPSDEQLKSGTASVVCLLNNFYPREAKVQWKVDNALQSGNSQESVTEQDSKDSTYSLSSTLTLSKADYEKHKVYACEVTHQGLSSPVTKSFNRGEC
notes: as for B2
For the molecule B8, the He/Con_3a with FcγRIIIa was 108 relative to control = 100.

B9: GpH7-A5/GpH7-B3 variant S324_09D/GpL16-k0 (He Ab) (antibody, human IgG1, kappa)
heavy 1: not shown
heavy 2: not shown
light: DIVMTQSPLSLPVTPGEPASISCQASESLVHSNRNTYLHWYLQKPGQSPQLLIYKVSNRFSGVPDRFSGSGSGTDFTLKISRVEAEDVGVYYCSQNTHVPPTFGQGTKVEIERTVAAPSVFIFPPSDEQLKSGTASVVCLLNNFYPREAKVQWKVDNALQSGNSQESVTEQDSKDSTYSLSSTLTLSKADYEKHKVYACEVTHQGLSSPVTKSFNRGEC
notes: as for B2
In the case of B9, in the assay with FcγRIIIa, the He/Con_3a is 101 relative to control = 100.
